This assay concerns the target T1, Human PD-L2 (human, UniProt Q9BQ51).
T1 sequence: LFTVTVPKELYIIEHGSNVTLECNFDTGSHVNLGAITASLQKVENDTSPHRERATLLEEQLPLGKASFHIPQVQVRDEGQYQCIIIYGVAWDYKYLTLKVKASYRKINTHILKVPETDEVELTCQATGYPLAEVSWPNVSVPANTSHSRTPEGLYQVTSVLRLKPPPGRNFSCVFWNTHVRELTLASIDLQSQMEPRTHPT
In words: SPR. A general note: In SPR one partner is held on a chip, and binding of the other changes the refractive index at the surface.

The source of these data is publication PMC8338886 (Clinical Cancer Research, 2021).

Usually Kd stands for a measure of binding affinity in units of concentration. Read a low Kd as tighter binding.

B1: sPD-1V1 Fc (Fc fusion)
chain: LDSPDRPWNPPTFSPALLVVTEGDNATFTCSFSNTSESFVLNWYRMSPSNQTDKLAAFPEDRGQLGQDCRFRVTQLPNGRDFHMSVVRARRSDSGTYLCSAIVLAPKIQIKESLRVELRVTERRAEVPTAHPSPSPRPAGQFQTLV
Take B1: the Kd is 2.95 nM.

B2: sPD-1V2 Fc (Fc fusion)
chain: LDSPDRPWNPPTFSPALLVVTEGDNATFTCSFSNTSESFVLNWYRMSPSNQTDKLAAFPEDRGQLGQDCRFRVTQLPNGRDFHMSVVRARRNDSGTYLCSAIVLAPKIQIKESLRVELRVTERRAEVPTAHPSPSPRPAGQFQTLV
B2 returned a Kd of 3.4 nM.
